Activity calls are given as the source filed them. No cut-off for these calls is given here.
Experiments:
[1] = target: Metallothiol transferase FosB (Staphylococcus aureus) (UniProt Q5HDM4); experiment: Inhibition of Staphylococcus aureus FosB using L-cysteine as substrate by absorbance based DTNB assay
C[C@@H](C(=O)O)P(=O)(O)O [2] = experiment: (§1) Binding affinity to Staphylococcus aureus FosB using L-cysteine as substrate assessed as Kcat/Km by DTNB assay based michaelis-menton analysis (reference value: 10.33 /mM/s)
CC[C@@H](O)P(=O)(O)O [3] = experiment: as §1
O=C(O)CP(=O)(O)O [4] = experiment: as §1
CC(C)[C@H](O)P(=O)(O)O [5] = experiment: as §1
C[C@H](CO)P(=O)(O)O [6] = experiment: as §1
C[C@@H](C(=O)O)P(=O)(O)O [7] = experiment: (§2) Binding affinity to Staphylococcus aureus FosB using L-cysteine as substrate assessed as catalytic constant by DTNB assay based michaelis-menton analysis (reference value: 2.95 /s)
CC[C@@H](O)P(=O)(O)O [8] = experiment: as §2
O=C(O)CP(=O)(O)O [9] = experiment: as §2
CC(C)[C@H](O)P(=O)(O)O [10] = experiment: as §2
C[C@H](CO)P(=O)(O)O [11] = experiment: as §2
C[C@@H](C(=O)O)P(=O)(O)O [12] = experiment: (§3) Binding affinity to Staphylococcus aureus FosB using L-cysteine as substrate assessed as Km by DTNB assay based michaelis-menton analysis (reference value: 0.29 +/- 0.03 mM)
CC[C@@H](O)P(=O)(O)O [13] = experiment: as §3
O=C(O)CP(=O)(O)O [14] = experiment: as §3
CC(C)[C@H](O)P(=O)(O)O [15] = experiment: as §3
C[C@H](CO)P(=O)(O)O [16] = experiment: as §3

Sequence of Metallothiol transferase FosB (Staphylococcus aureus) (Q5HDM4 whole entry): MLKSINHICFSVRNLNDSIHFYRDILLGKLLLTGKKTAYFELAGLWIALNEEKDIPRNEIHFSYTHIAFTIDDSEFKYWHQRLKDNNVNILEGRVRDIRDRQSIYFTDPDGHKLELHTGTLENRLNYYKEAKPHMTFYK
Sequence of Metallothiol transferase FosB (Staphylococcus aureus), Q5HDM4 (Q5HDM4 whole entry): as above

Compound: O=C(O)CCP(=O)(O)O
- inhibition [1]: inactive

Compound: CC(C(=O)O)C(=O)O
- inhibition [1]: inactive

Compound: O=P(O)(O)CCP(=O)(O)O
- inhibition [1]: inactive

Compound: Metallothiol transferase FosB (Staphylococcus aureus), Q5HDM4
- kcat/Km (C[C@@H](C(=O)O)P(=O)(O)O [2]): 11400 M⁻¹ s⁻¹
- kcat/Km (CC[C@@H](O)P(=O)(O)O [3]): 11400 M⁻¹ s⁻¹
- kcat/Km (O=C(O)CP(=O)(O)O [4]): 11800 M⁻¹ s⁻¹
- kcat/Km (CC(C)[C@H](O)P(=O)(O)O [5]): 11200 M⁻¹ s⁻¹
- kcat/Km (C[C@H](CO)P(=O)(O)O [6]): 10600 M⁻¹ s⁻¹
- kcat (C[C@@H](C(=O)O)P(=O)(O)O [7]): 2.84 s⁻¹
- kcat (CC[C@@H](O)P(=O)(O)O [8]): 2.82 s⁻¹
- kcat (O=C(O)CP(=O)(O)O [9]): 2.83 s⁻¹
- kcat (CC(C)[C@H](O)P(=O)(O)O [10]): 2.84 s⁻¹
- kcat (C[C@H](CO)P(=O)(O)O [11]): 2.91 s⁻¹
- Km (C[C@@H](C(=O)O)P(=O)(O)O [12]): 250 µM
- Km (CC[C@@H](O)P(=O)(O)O [13]): 250 µM
- Km (O=C(O)CP(=O)(O)O [14]): 240 µM
- Km (CC(C)[C@H](O)P(=O)(O)O [15]): 250 µM
- Km (C[C@H](CO)P(=O)(O)O [16]): 270 µM
